Measurements taken from the supplement of paper PMC9732359.
± gives the uncertainty stated by the source.

Assay: protein stability index of a GFP-peptide fusion (yeast GPS) (PSI 1-4); higher = more stable; sorted into four equal gates, so the index is relative within each strain
Procedure, shortened: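 Mid-log yeast cultures in leucine-free medium, carrying a pooled plasmid library, were sorted into four equal gates by their GFP/Cherry fluorescence ratio. Each plasmid expressed Cherry along with GFP fused upstream of a tiled 17-residue yeast protein peptide. Plasmids recovered from each gate were PCR-amplified and Illumina-sequenced, with reads assigned to strains by barcodes. The protein stability index was obtained by summing each gate's read frequency weighted by its gate number.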

Sequence	protein stability index (doa10∆)	protein stability index (pdr5∆)	protein stability index (san1∆)	protein stability index (ubr1∆)
AYSPKQDEQKHNENENS [RPO21]	2.65 ± 0.065	2.49 ± 0.072	2.57 ± 0.09	2.68 ± 0.061
AISTGNWSLKRFKMERA [RET1]	1.94 ± 0.097	1.93 ± 0.11	2.44 ± 0.11	1.68 ± 0.077
NIQGITKPAIRRLARRG [HHF1]	3.27 ± 0.1	3.24 ± 0.093	2.89 ± 0.092	3.35 ± 0.066
QTQREKAPLQPNSERET [IRR1]	3.1 ± 0.061	3.2 ± 0.059	3.06 ± 0.039	3.07 ± 0.054
RFEKAVKHVFGKTIVVK [SMC3]	2.76 ± 0.21	3.58 ± 0.2		3.5 ± 0.16
PHELTESVLPAARYDYA [QCR2]	2.22 ± 0.061	1.92 ± 0.046	2.09 ± 0.081	1.92 ± 0.044
NKLFTEPIKLEPVKEYT [YMR129W/POM152]	2.34 ± 0.05	2.39 ± 0.06	2.4 ± 0.084	2.4 ± 0.072
DKHLYHVLYKESKGNAF [RPL19A]	3.56 ± 0.16	3.39 ± 0.089	2.96 ± 0.11	2.77 ± 0.084
YPDFRHYGLAVDIYTHF [DIS3]	2.17 ± 0.041	2.32 ± 0.041	1.9 ± 0.066	2.2 ± 0.031
IFTCQIMNLITNEPCGA [RPN4]	2.07 ± 0.087	2.61 ± 0.18	2.36 ± 0.21	
YPIYELLMSCPRLSHLS [GRR1]	1.42 ± 0.056	1.4 ± 0.048	1.45 ± 0.14	1.39 ± 0.052
KRIESLQKDLQRQKTYV [SMC1]	3.01 ± 0.16	3.2 ± 0.13	2.85 ± 0.21	2.9 ± 0.15
SYQPMYQRPMQVQGQQQ [SSN3]	1.46 ± 0.043	1.71 ± 0.06	1.92 ± 0.11	1.89 ± 0.054
LEEKILAKKTHKQELQD [SMC4]	2.95 ± 0.093	3.21 ± 0.074	2.88 ± 0.072	2.85 ± 0.073
VFKLSTNLISKISLLRP [SWP82]	2.11 ± 0.099	2.43 ± 0.1	2.13 ± 0.18	2.87 ± 0.088
VHDKIWCCRSGSAADTQ [PRE3]	2.59 ± 0.07	2.92 ± 0.076	2.64 ± 0.081	2.65 ± 0.048
LTGEAEIEQPVTTFVFT [FAS1]	3.16 ± 0.083	2.98 ± 0.067	2.64 ± 0.096	2.4 ± 0.055
EIKLLEISCKQWEISNM [CSI1]		3.44 ± 0.27		3.55 ± 0.23
ASPSAHTSSSDGNNEIF [RPN4]	2.36 ± 0.063	2.73 ± 0.046	2.61 ± 0.067	3 ± 0.063
TSKTVSNQFKRSLATAV [COR1]	2.47 ± 0.11	2.32 ± 0.075	2.34 ± 0.092	1.8 ± 0.056
DLLPNSFAKLVPCEGKD [SMC2]	2.2 ± 0.04	2.73 ± 0.038	2.46 ± 0.053	2.45 ± 0.039
IYDFITLFSSIEPQVIN [ECM29]	1.61 ± 0.07	2 ± 0.061	1.72 ± 0.18	2.08 ± 0.039
SKNELKKAFTSYDRTLL [RPS16A]	2.76 ± 0.067	3.14 ± 0.057	3.12 ± 0.07	2.91 ± 0.077
HVNKRKRVSGTSQHSDS [YOR098C/NUP1]	1.93 ± 0.077	2.31 ± 0.11	2.22 ± 0.1	1.64 ± 0.076
ENPTPEKGNAKMIDFAT [SIR3]	3.1 ± 0.11	2.99 ± 0.092	3.32 ± 0.072	3.03 ± 0.068
MSGRGKGGKGLGKGGAK [HHF1]	3.69 ± 0.29	3.56 ± 0.27	3.61 ± 0.097	3.58 ± 0.074
DNFDYFNQRDGEHEKSN [MED1]	2.86 ± 0.098	3 ± 0.2	3.19 ± 0.15	3.56 ± 0.14

Sequence	protein stability index (doa10∆)	protein stability index (pdr5∆)	protein stability index (san1∆)	protein stability index (ubr1∆)
RPLPQWIRLRTNNTIRY [RPL39]	1.85 ± 0.056	1.81 ± 0.054	1.5 ± 0.067	1.62 ± 0.052
YKFLDQNSDASTLEPTL [YIL149C/MLP2]	2.24 ± 0.11	1.65 ± 0.092	2.27 ± 0.09	2.67 ± 0.18
EVQCTSTPYLEILVEES [PCI8]	2.3 ± 0.067	2.96 ± 0.18	2.33 ± 0.14	2.64 ± 0.083
IKTVVLVPQLGHVGSVQ [PRP8]	2.42 ± 0.056	2.47 ± 0.049	2.28 ± 0.063	2.35 ± 0.041
NSIESKNLSLQTGTKPV [COR1]	2.72 ± 0.06	2.84 ± 0.053	2.95 ± 0.045	2.85 ± 0.042
IVLDEVRNKSYPVYTRL [DIS3]	2.93 ± 0.051	2.65 ± 0.056	2.99 ± 0.067	1.69 ± 0.027
QQQQQQQQQQQQQGQIP [SNF5]	2.729 ± 0.023	2.79 ± 0.023	2.75 ± 0.022	2.826 ± 0.02
YEYAEHDLLQIIHFHSH [SSN3]	2.31 ± 0.062	2.59 ± 0.054	2.5 ± 0.045	2.63 ± 0.04
DSSYQDIFAVNLEESSK [RET1]		2.09 ± 0.25	2.29 ± 0.26	
ELLNADHQHILRKLKKM [RPC53]	1.13 ± 0.059	1.24 ± 0.063	1.11 ± 0.15	1.28 ± 0.046
SPTPIQRITIPNVCNMK [PRP28]	1.99 ± 0.074	2.16 ± 0.063	2.04 ± 0.068	2.09 ± 0.057
ATALQTCAGGRLFNVVV [SMC2]	2.63 ± 0.12	2.9 ± 0.13	3.13 ± 0.15	2.12 ± 0.15
THVANFMNDAAADVSAV [YML103C/NUP188]	2.79 ± 0.097	2.77 ± 0.073	2.44 ± 0.081	2.84 ± 0.049
LVLNKSSIDRGFGRCET [RET1]	3.03 ± 0.28	3.11 ± 0.23	2.76 ± 0.12	
TSASNTSMNGVHNTVAA [SNF5]	2.66 ± 0.042	2.86 ± 0.04	2.9 ± 0.051	2.9 ± 0.047
PRVIEPVYTAQWSATWI [PRP8]	1.8 ± 0.072	2.17 ± 0.054	2.08 ± 0.07	2.13 ± 0.046
YVIHGIELLSDLINILE [LIN1]		2.74 ± 0.25		2.43 ± 0.14
ASTGSGKTLAFVIPILI [PRP28]	1.47 ± 0.069	1.29 ± 0.079	1.48 ± 0.17	3.09 ± 0.1
LPVKEFQIIDTLLPGLQ [RPS2]	2.35 ± 0.15	1.83 ± 0.059	1.95 ± 0.089	1.5 ± 0.063
ERPPYILNSYGVLKPDI [SIR2]	2.83 ± 0.078	3.12 ± 0.093	3.15 ± 0.053	3.15 ± 0.061
SIRLKVPPTIAQFQYTL [RPL8A]	2.09 ± 0.047	2.36 ± 0.04	1.93 ± 0.064	2.19 ± 0.035
EGPKKCIQVNCLNCEKS [SNM1]	2.62 ± 0.079	2.04 ± 0.058	2.8 ± 0.073	2.22 ± 0.049
GLAPDARVLSNYLRQQC [PRE5]	2.72 ± 0.19	2.11 ± 0.21		1.47 ± 0.28
LKFVKVRVRTTKIPQIG [RPB2]	2.51 ± 0.073	2.55 ± 0.079	2.85 ± 0.13	2.52 ± 0.04
LIIVTRKNYMHVKNFGF [YML031W/NDC1]	1.22 ± 0.042	1.52 ± 0.048	1.51 ± 0.1	1.87 ± 0.04
TVQSERAFQKQPHIFNN [RPS11A]	2.69 ± 0.051	2.58 ± 0.043	2.53 ± 0.045	2.79 ± 0.034
